Assay results as given in publication PMC8413462, “Eukaryotic Box C/D methylation machinery has two non-symmetric protein assembly sites” (Scientific Reports, 2021).
Each block holds one binder with its values, some of them ahead of it.

B2: Nop5 from Pyrococcus furiosus (natural protein, P. furiosus, UniProt Q8U4M1 1-402, looked up)
chain: MKAFISENVRGIYAFDENGNLIEKRYFTDKPEKVLDQLLKGEITKDLEELLNSLKEKGYDEFVFEHPELSRRAKELGFSATTEFPNIAGERLRSNPEEFLGENWFEEYYKVGVALTRMRIQEQSGARDKMVIQAIEALDDVDKVINLLVARLREWYSLHFPELDELLPKHPQYVAFVKTVGHRDNINEEVLRELGLSEEKIKKILEAKEKTMGAWMDQTDIEVVRQLAEEIDRLYQLRKKLEDYIDRAMDDVAPNLKALVGAKLAARLISLAGGLRELAMMPSSTIQVLGAEKALFRHLRTGAKPPKHGVIYQYPAINRSPWWQRGKIARALAGKLAIAARVDYFSGEYIAEELKKELEARIREIKEKYPKPPKRKREERKGKKPWKKDKKKKKKKEKPRRR
notes: Nop5, Pyrococcus furiosus, full-length gene amplified from genomic DNA, UniProtKB Q8U4M1; Cloned into pET-M11 with a TEV-cleavable N-terminal His6-Tag; also called Nop5_(2) (homodimer); source: E. coli BL21(DE3), purified (heat step at 80 °C, HisTrap, TEV cleavage, reverse HisTrap); not shown: His6, N-terminal, cleaved

What was measured:
[1] = molecular target: B2; test: SEC; Nop5 and fibrillarin mixed 1:1.1, 15 min at 80 °C, cooled to room temperature; Superdex S200 Increase 10/300 GL; 20 mM sodium phosphate, 500 mM NaCl, pH 6.6; settings: both partners purified
[2] = molecular target: the molecule itself; test: as above
[3] = molecular target: T1, Nop5_(2)–Fib2 complex from Pyrococcus furiosus (P. furiosus, UniProt Q8U4M1 1-402; Q8U4M2 1-227); test: SEC-MALS; RNP assembled with yeast guide RNA snR51, Snu13 and Nop5_(2)–Fib2; Superdex S200 Increase 10/300 GL, miniDawn TREOS, Optilab T-rex; the guide RNA is part of the particle; settings: both partners purified
T1 construct: Nop5, Pyrococcus furiosus, full-length, UniProtKB Q8U4M1; fibrillarin, Pyrococcus furiosus, full-length, UniProtKB Q8U4M2; Formed beforehand and then mixed with Snu13 and guide RNA (1:2:1); also called Nop5_(2)–Fib2 tetramer; source: E. coli BL21(DE3), each protein purified; mixed 1:1.1, 15 min at 80 °C, complex purified by size-exclusion chromatography; not shown: His6, N-terminal, cleaved; …
T1 sequence (looked up) 1: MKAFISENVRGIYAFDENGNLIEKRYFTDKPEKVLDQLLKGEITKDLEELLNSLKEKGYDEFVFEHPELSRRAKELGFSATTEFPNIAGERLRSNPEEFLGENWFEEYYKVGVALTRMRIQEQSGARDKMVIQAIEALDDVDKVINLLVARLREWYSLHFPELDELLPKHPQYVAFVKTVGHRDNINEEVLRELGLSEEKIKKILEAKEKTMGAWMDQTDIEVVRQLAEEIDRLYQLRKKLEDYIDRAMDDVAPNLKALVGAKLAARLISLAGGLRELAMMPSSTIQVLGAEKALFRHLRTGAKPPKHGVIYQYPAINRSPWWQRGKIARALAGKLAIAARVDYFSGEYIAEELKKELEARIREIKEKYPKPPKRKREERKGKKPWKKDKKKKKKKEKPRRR
T1 sequence (looked up) 2: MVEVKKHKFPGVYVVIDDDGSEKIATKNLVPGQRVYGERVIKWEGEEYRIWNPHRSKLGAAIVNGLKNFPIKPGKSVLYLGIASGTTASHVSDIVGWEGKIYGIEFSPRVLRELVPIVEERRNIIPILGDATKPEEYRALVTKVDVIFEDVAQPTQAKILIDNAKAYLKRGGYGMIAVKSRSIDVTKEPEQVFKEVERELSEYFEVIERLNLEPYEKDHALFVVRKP

[4] = molecular target: T1, Nop5_(2)–Fib2 complex from Pyrococcus …; test: SEC-MALS; RNP assembled with archaeal guide RNA sR26, Snu13 and Nop5_(2)–Fib2; Superdex S200 Increase 10/300 GL, miniDawn TREOS, Optilab T-rex; the guide RNA is part of the particle; monomeric and dimeric RNP peaks partially overlapped; settings: both partners purified

- binding result [1]: binds
B1: fibrillarin from Pyrococcus furiosus (enzyme, P. furiosus, UniProt Q8U4M2 1-227, looked up)
chain: MVEVKKHKFPGVYVVIDDDGSEKIATKNLVPGQRVYGERVIKWEGEEYRIWNPHRSKLGAAIVNGLKNFPIKPGKSVLYLGIASGTTASHVSDIVGWEGKIYGIEFSPRVLRELVPIVEERRNIIPILGDATKPEEYRALVTKVDVIFEDVAQPTQAKILIDNAKAYLKRGGYGMIAVKSRSIDVTKEPEQVFKEVERELSEYFEVIERLNLEPYEKDHALFVVRKP
notes: fibrillarin, Pyrococcus furiosus, full-length gene amplified from genomic DNA, UniProtKB Q8U4M2; Cloned into pET-M11 with a TEV-cleavable N-terminal His6-Tag; source: E. coli BL21(DE3), purified (heat step at 80 °C, HisTrap, TEV cleavage, reverse HisTrap); not shown: His6, N-terminal, cleaved

Binder: B2
- binding result [2]: binds

- stoichiometry N [3]: 1 copies per Nop5_(2)–Fib2 tetramer
- stoichiometry N [4]: 2 copies per Nop5_(2)–Fib2 tetramer
B3: Snu13 from Saccharomyces cerevisiae (natural protein, S. cerevisiae, UniProt P39990 1-126, looked up)
chain: MSAPNPKAFPLADAALTQQILDVVQQAANLRQLKKGANEATKTLNRGISEFIIMAADCEPIEILLHLPLLCEDKNVPYVFVPSRVALGRACGVSRPVIAASITTNDASAIKTQIYAVKDKIETLLI
notes: Snu13, S. cerevisiae, full-length SNU13 gene, codon-optimised synthetic gene, UniProtKB P39990; Cloned into pET-M11 with a TEV-cleavable N-terminal His6-Tag; also called Sc Snu13; source: E. coli BL21 (DE3), purified (HisTrap, QTrap flow-through, TEV cleavage, reverse HisTrap); not shown: His6, N-terminal, cleaved
